Reference: US20260274933A1 (Innovent, published 2026)

What was measured:
human VEGF165 (R&D) [1] = target: T1, human VEGF165 (R&D) (human, UniProt P15692-4 27-191); assay: BLI (ForteBio), monovalent binding
T1 construct: Antigen of the ForteBio assay

human VEGF165 (R&D) [2] = target: T1, human VEGF165 (R&D); assay: BLI (ForteBio), bivalent binding
[3] = target: T2, biotin-labeled VEGF A165 (ACRO, Catalog No. VE5-H8210) (human, UniProt P15692-4 27-191, biotin-labeled); assay: blocking ELISA: biotin VEGF A165 captured on streptavidin, binding of VEGFR-Fc blocked; value printed as EC50 in the table under the curves, unit from the axis
T2 construct: also called hVEGF A
T2 sequence (P15692 other isoform, or with tags, fused parts or gaps limits assumed): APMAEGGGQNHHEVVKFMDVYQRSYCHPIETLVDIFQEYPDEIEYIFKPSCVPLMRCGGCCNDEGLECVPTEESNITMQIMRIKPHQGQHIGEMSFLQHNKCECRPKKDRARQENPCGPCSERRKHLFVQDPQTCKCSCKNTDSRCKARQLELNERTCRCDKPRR
Experimental: SA (Thermo, Catalog No. 21125) was diluted to 1 μg/mL, and 100 μL/well of SA was plated in a microplate at 4° C. overnight. The plate was washed 3 times with PBST and blocked with 3% BSA for 1.5 h. […] The plate was washed 6 times with PBST, the color development was performed with TMB for 5 min, and OD450 nm was read after stopping.

human VEGF165 (R&D) [4] = target: T1, human VEGF165 (R&D); assay: BLI (ForteBio), bivalent binding; * dissociation constant exceeding ForteBio detection limits

T1 sequence (P15692 other isoform, or with tags, fused parts or gaps limits assumed): as above

B1: LA42F8 (VEGFA VHH) (VHH)
VHH: QLQLVESGGGLVQPGGSLRLSCAASGFNLDYYPIGWFRQAPGKEREGVSCISSVGSTNYADSVKGRFTISRDNAKNTVYLQMNSLKPEDTAVYYCAADPLCSALILPPPFLSWGQGTQVTVSS
notes: Alpaca anti-VEGF A VHH; also called LA42F8 supernatant
Q: B1 was tested. Which Kd (human VEGF165 (R&D) [1]) did it give?
A: 6.11 nM

Q: What about the koff (human VEGF165 (R&D) [1]) of the same binder?
A: 0.00116 s⁻¹

Q: And the kon (human VEGF165 (R&D) [1])?
A: 189000 M⁻¹ s⁻¹

Q: And the Kd (human VEGF165 (R&D) [2])?
A: 0.843 nM

Q: What about the kon (human VEGF165 (R&D) [2]) of the same binder?
A: 237000 M⁻¹ s⁻¹

Q: What about the EC50 [3] of the same binder?
A: 0.0149 µg/mL

Q: And the koff (human VEGF165 (R&D) [4])?
A: ≤ 0.0002 s⁻¹
